Data on three molecules can be found in patent US20160046725A1 (PIERRE FABRE MEDICAMENT, published 2016).

The chains are these.
T1: human Axl receptor on human tumor cells (human, UniProt P30530 26-894)
T1 sequence: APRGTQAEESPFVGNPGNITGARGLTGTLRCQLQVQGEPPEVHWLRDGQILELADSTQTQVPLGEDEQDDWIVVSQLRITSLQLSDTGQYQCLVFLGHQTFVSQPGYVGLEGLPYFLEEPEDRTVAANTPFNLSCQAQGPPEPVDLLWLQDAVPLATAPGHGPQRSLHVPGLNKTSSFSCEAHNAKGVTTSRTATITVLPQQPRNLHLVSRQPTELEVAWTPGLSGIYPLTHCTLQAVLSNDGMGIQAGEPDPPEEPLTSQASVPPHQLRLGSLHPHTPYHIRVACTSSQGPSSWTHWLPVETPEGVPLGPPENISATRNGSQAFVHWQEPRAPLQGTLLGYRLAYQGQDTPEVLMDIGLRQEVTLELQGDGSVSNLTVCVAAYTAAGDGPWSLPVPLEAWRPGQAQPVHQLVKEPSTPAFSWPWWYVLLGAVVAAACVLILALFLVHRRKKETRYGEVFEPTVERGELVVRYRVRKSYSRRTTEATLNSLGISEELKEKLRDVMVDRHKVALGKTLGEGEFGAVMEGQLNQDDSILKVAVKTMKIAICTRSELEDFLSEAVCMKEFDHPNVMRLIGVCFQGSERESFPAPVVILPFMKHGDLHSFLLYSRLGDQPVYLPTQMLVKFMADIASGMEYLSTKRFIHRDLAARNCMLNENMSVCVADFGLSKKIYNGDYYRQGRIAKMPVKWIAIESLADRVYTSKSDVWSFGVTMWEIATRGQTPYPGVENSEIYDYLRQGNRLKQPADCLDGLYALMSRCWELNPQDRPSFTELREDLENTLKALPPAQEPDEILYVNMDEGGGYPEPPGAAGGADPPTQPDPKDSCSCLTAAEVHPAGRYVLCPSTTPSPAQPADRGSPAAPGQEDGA

T2: recombinant human Axl-Fc protein (R and D Systems, cat N° 154-AL) (human, UniProt P30530 26-451)
T2 construct: Bought construct; An anti-Histidine coating control hints at a His tag, not described; also called rhAxl-Fc; rh Axl-Fc; not shown: human Fc portion of the bought fusion
T2 sequence: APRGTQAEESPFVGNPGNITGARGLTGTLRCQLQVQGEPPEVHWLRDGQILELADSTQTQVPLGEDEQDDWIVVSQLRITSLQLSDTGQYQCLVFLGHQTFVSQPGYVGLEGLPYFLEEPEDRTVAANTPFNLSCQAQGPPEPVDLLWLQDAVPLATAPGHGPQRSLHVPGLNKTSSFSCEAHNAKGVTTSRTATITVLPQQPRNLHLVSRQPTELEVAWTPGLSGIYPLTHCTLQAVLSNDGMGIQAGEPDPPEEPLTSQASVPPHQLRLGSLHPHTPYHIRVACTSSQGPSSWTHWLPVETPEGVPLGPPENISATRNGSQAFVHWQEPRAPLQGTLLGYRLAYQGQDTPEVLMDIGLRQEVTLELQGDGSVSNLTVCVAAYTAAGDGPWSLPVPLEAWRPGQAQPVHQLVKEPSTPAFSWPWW

B1: 110D7 anti-Axl monoclonal antibody (antibody, V domains shown)
VH: EVKLVESGGGLVQPGGSLKLSCATSGFTFSDYYMYWVRQTPEKRLEWVAYISNGGGSTYYPDTVKGRFTMSRDNAKNTLYLQMSRLKSEDTAMYYCARLSFYAMDYWGQGTSVTVSS
VL: DIVMTQSHKFMSTSVGDRVSITCKASQDVTTAVAWYQQKPGQSPKLLIYWASTRHTGVPDRFTGSGSGTDYTLTISSVQAEDLALYYCQQHYRIPFTFGSGTKLEIK
notes: Murine monoclonal antibody purified from a hybridoma; a mIgG1 isotype control (9G4) is used beside it; also called m110D7; monoclonal antibody 110D7 derived from the hybridoma I-3959
B2: 1024G11 anti-Axl monoclonal antibody (antibody, V domains shown)
VH: EVKLVESGGGLVQPGGSLNLSCAASGFTFSSYSMSWVRQTPEKRLEWVAFISNGGGRTYYPDTVKGRFTFSRDNARNTLYLQMSSLNSEDTAMYFCARGTTESYYAMDYWGQGTSVTVSS
VL: B1 VL with T30I, Y87F, Y92L, R93S, I94T, F96L, S100A, I106L
notes: Murine monoclonal antibody purified from a hybridoma; a mIgG1 isotype control (9G4) is used beside it; also called monoclonal antibody 1024G11 derived from the hybridoma I-4501
B3: 1003A2 anti-Axl monoclonal antibody (antibody, V domains shown)
VH: B2 VH with N19K, S30N, F50Y, V64I, F70L, A75D, N87K, F95Y, M107L
VL: B1 VL with V15L, V19I, T30I, T72N, Y92F, R93S, I94T, F96L, S100A, I106L
notes: Murine monoclonal antibody purified from a hybridoma; a mIgG1 isotype control (9G4) is used beside it; also called monoclonal antibody 1003A2 derived from the hybridoma I-4499

Positions count from the first letter of the chain named. Some results are limits rather than exact numbers.

The first assay deals with T1, human Axl receptor on human tumor cells. As to the kind of experiment: cell-based or functional assay.
Take B1: the “Axl down-regulation at 4 h (western blot, SN12C)” value (shortened to “Axl down-regulation at 4 h”) was 50%; the “Axl down-regulation at 24 h (western blot, SN12C)” value (“Axl down-regulation at 24 h” below) is 84%; the “maximal cytotoxic effect on SN12C cells (Mab-Zap assay)” value (shortened to “maximal cytotoxic effect”) was around 49%.

B2: the “Axl down-regulation at 4 h” value came to 68%; the “Axl down-regulation at 24 h” value was 85%; the “maximal cytotoxic effect” value was around 40%.

Take B3: the “Axl down-regulation at 4 h” value was 66%; the “Axl down-regulation at 24 h” value is 89%; the “maximal cytotoxic effect” value was around 37%.

Another assay deals with T2, recombinant human Axl-Fc protein (R and …). As to the kind of experiment: competition ELISA, rhAxl-Fc on coated rhGas6 (competitor: Gas6). Here is the method:
To further characterize the anti-Axl Mabs, Gas6 competition assays were performed. In this assay, the free rhAxl-Fc protein and the anti-Axl antibody are incubated to form antigen-antibody complex and then the complexes are loaded on Gas6-coated surface in the assay plate. The unbound antibody-antigen complexes are washed off before adding enzyme-linked secondary antibody against the human Fc portion of the rhAxl-Fc protein. The substrate is then added and the antigen concentration can then be determined by the signal strength elicited by the enzyme-substrate reaction.
Briefly reaction mixture comprising the rhAxl-Fc protein in presence or not of the Mabs to be tested, are prepared on a separate saturated (0.5% gelatin in PBS 1×) plate. Serial 1: 2 dilutions (starting from 80 μg/ml on 12 columns) of murine Axl antibodies (110D7, 1003A2 and 1024G11) are performed. Then 0.5 μg/ml of the rhAxl-Fc protein is added (R and D Systems, ref 154AL/CF), except to the negative control line that contains only ELISA diluant (0.1% gelatin, 0.05% Tween 20 in PBS 1×). After homogenisation, the competition samples are loaded on Gas6-coated plates with a 6 μg/ml rhGas6 solution in PBS (R and D Systems cat N° 885-GS-CS/CF). After incubation and several washes, bound rhAxl-Fc proteins are detected using a goat anti-Human IgG-HRP (Jackson, ref 109-035-098). Once bound, the TMB substrate is added to the plates. The reaction is stopped by addition of H₂SO₄ acid solution and the obtained optical densities read at 450 nm using a microplate reader instrument.
A general note: In an ELISA, binding on a coated surface is turned into a signal by an enzyme label.
In the case of B1, the “antibody concentration above which competition with Gas6 binding occurs” value is above 16.7 nM.

Regarding B2, the “antibody concentration above which competition with Gas6 binding occurs” value is above 16.7 nM.

Consider B3, for which the “antibody concentration above which competition with Gas6 binding occurs” value is above 16.7 nM.
